Results as given in patent US20240279309A1 (Molecular Partners, published 2024).

B1: SMA095 (SEQ ID NO: 101) (designed binder)
chain: MRGSHHHHHHGSDLGKKLLEAARAGQDDEVRELLKAGADVNAKDYFSHTPLHLAARNGHLKIVEVLLKAGADVNAKDFAGKTPLHLAAADGHLEIVEVLLKAGADVNAQDIFGKTPADIAADAGHEDIAEVLQKAAGSPTPTPTTPTPTPTTPTPTPTGSDLGEKLLVAALYGQDDEVRELLKAGADVNAKDQWGLTPLHKAALQGHLEIVEVLLKAGADVNAKDERGHTPLHWAARFGHLEIVEVLLKAGADVNAQDQKGYTPADLAALWGHEDIAEVLQKAAGSPTPTPTTPTPTPTTPTPTPTGSDLGKKLLQAARAGQLDEVRELLKAGADVNAKDTWGFTPLHIAAESGHLEIVEVLLKAGADVNAKDVQGRTPLHIAAHSGHLEIVEVLLKAGADVNAKDFRGWTPLHLAAWSGHLEIVEILLKAGADVNAQDKSGKTPADLAARAGHQDIAEVLQKAAGSPTPTPTTPTPTPTTPTPTPTGSDLGKKLLEAARAGQDDEVRELLKAGADVNAKDYFSHTPLHLAARNGHLKIVEVLLKAGADVNAKDFAGKTPLHLAAADGHLEIVEVLLKAGADVNAQDIFGKTPADIAADAGHEDIAEVLQKAA
B2: SMA091 (SEQ ID NO: 103) (designed binder)
chain: MRGSHHHHHHGSDLGKKLLEAARAGQDDEVRELLKAGADVNAKDYFSHTPLHLAARNGHLKIVEVLLKAGADVNAKDFAGKTPLHLAAADGHLEIVEVLLKAGADVNAQDIFGKTPADIAADAGHEDIAEVLQKAAGSPTPTPTTPTPTPTTPTPTPTGSDLGEKLLVAALYGQDDEVRELLKAGADVNAKDQWGLTPLHKAALQGHLEIVEVLLKAGADVNAKDERGHTPLHWAARFGHLEIVEVLLKAGADVNAQDQKGYTPADLAALWGHEDIAEVLQKAAGSPTPTPTTPTPTPTTPTPTPTGSDLGKKLLQAARAGQLDEVRELLKAGADVNAKDTWGFTPLHIAAESGHLEIVEVLLKAGADVNAKDVQGRTPLHIAAHSGHLEIVEVLLKAGADVNAKDFRGWTPLHLAAWSGHLEIVEILLKAGADVNAQDKSGKTPADLAARAGHQDIAEVLQKAAGSPTPTPTTPTPTPTTPTPTPTGSDLGKKLLQAARAGQLDEVRELLKAGADVNAKDTWGFTPLHIAAESGHLEIVEVLLKAGADVNAKDVQGRTPLHIAAHSGHLEIVEVLLKAGADVNAKDFRGWTPLHLAAWSGHLEIVEILLKAGADVNAQDKSGKTPADLAARAGHQDIAEVLQKAA
B3: SMA099 (SEQ ID NO: 104) (designed binder)
chain: MRGSHHHHHHGSDLGKKLLEAARAGQDDEVRELLKAGADVNAKDYFSHTPLHLAARNGHLKIVEVLLKAGADVNAKDFAGKTPLHLAAADGHLEIVEVLLKAGADVNAQDIFGKTPADIAADAGHEDIAEVLQKAAGSPTPTPTTPTPTPTTPTPTPTGSDLGEKLLVAALYGQDDEVRELLKAGADVNAKDQWGLTPLHKAALQGHLEIVEVLLKAGADVNAKDERGHTPLHWAARFGHLEIVEVLLKAGADVNAQDQKGYTPADLAALWGHEDIAEVLQKAAGSPTPTPTTPTPTPTTPTPTPTGSDLGKKLLQAARAGQLDEVRELLKAGADVNAKDTWGFTPLHIAAESGHLEIVEVLLKAGADVNAKDVQGRTPLHIAAHSGHLEIVEVLLKAGADVNAKDFRGWTPLHLAAWSGHLEIVEILLKAGADVNAQDKSGKTPADLAARAGHQDIAEVLQKAAGSPTPTPTTPTPTPTTPTPTPTGSDLGKKLLQAARAGQLDEVRELLKAGADVNAKDTWGFTPLHIAAESGHLEIVEVLLKAGADVNAKDVQGRTPLHIAAHSGHLEIVEVLLKAGADVNAKDFRGWTPLHLAAWSGHLEIVEILLKAGADVNAQDKSGKTPADLAARAGHQDIAEVLQKAAGSPTPTPTTPTPTPTTPTPTPTGSDLGKKLLEAARAGQDDEVRELLKAGADVNAKDYFSHTPLHLAARNGHLKIVEVLLKAGADVNAKDFAGKTPLHLAAADGHLEIVEVLLKAGADVNAQDIFGKTPADIAADAGHEDIAEVLQKAA
B4: SMA105 (SEQ ID NO: 106) (designed binder)
chain: MRGSHHHHHHGSDLGEKLLVAALYGQDDEVRELLKAGADVNAKDQWGLTPLHKAALQGHLEIVEVLLKAGADVNAKDERGHTPLHWAARFGHLEIVEVLLKAGADVNAQDQKGYTPADLAALWGHEDIAEVLQKAAGSPTPTPTTPTPTPTTPTPTPTGSDLGKKLLQAARAGQLDEVRELLKAGADVNAKDTWGFTPLHIAAESGHLEIVEVLLKAGADVNAKDVQGRTPLHIAAHSGHLEIVEVLLKAGADVNAKDFRGWTPLHLAAWSGHLEIVEILLKAGADVNAQDKSGKTPADLAARAGHQDIAEVLQKAAGSPTPTPTTPTPTPTTPTPTPTGSDLGKKLLQAARAGQLDEVRELLKAGADVNAKDTWGFTPLHIAAESGHLEIVEVLLKAGADVNAKDVQGRTPLHIAAHSGHLEIVEVLLKAGADVNAKDFRGWTPLHLAAWSGHLEIVEILLKAGADVNAQDKSGKTPADLAARAGHQDIAEVLQKAAGSPTPTPTTPTPTPTTPTPTPTGSDLGKKLLQAARAGQLDEVRELLKAGADVNAKDTWGFTPLHIAAESGHLEIVEVLLKAGADVNAKDVQGRTPLHIAAHSGHLEIVEVLLKAGADVNAKDFRGWTPLHLAAWSGHLEIVEILLKAGADVNAQDKSGKTPADLAARAGHQDIAEVLQKAA

biological target: T1, CD40 receptor on cells (HEK293 reporter cells expressing CD40; primary human B cells) (human, UniProt P25942 21-277); experiment: cell-based or functional assay
T1 sequence (P25942 21-277): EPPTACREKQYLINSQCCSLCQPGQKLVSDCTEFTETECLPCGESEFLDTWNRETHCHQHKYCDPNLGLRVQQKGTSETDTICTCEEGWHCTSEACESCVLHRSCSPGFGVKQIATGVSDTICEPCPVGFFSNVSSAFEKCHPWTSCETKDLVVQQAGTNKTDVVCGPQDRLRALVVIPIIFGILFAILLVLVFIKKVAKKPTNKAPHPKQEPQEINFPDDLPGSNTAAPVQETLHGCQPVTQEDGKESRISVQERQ

First: B1
Second: B2
The “EC50 [nM], % CD86, human B cells with FAP-CHO, w/o HSA” value of the first is 120-fold higher: 89.8 nM for the first, 0.76 nM for the second.

Compared with B3, B4 is 43-fold lower in “EC50 [nM], % CD86, human B cells with FAP-CHO, w/o HSA” value: 4.68 nM for the first, 0.11 nM for the second.

Going from B1 to B2, the “EC50 [nM], MFI CD86, human B cells with FAP-CHO, w/o HSA” value falls from 288 nM to 3.93 nM (73-fold).

Going from B3 to B4, the “EC50 [nM], MFI CD86, human B cells with FAP-CHO, w/o HSA” value falls from 18.2 nM to 0.33 nM (55-fold).

Compared with B2, B3 is 2.5-fold higher in “EC50 [nM], % CD86, human B cells with FAP-CHO, w HSA” value: 2.98 nM for the first, 7.5 nM for the second.

Compared with B2, B3 is 2.4-fold higher in “EC50 [nM], MFI CD86, human B cells with FAP-CHO, w HSA” value: 8.05 nM for the first, 19.4 nM for the second.

biological target: T1, CD40 receptor on cells (HEK293 reporter …); experiment: cell-based or functional assay; remark: another data set of the same source

Compared with B1, B2 is higher in “Efficacy [MFI at highest dose], MFI CD86, human B cells with FAP-CHO, w HSA” value: 232 MFI for the first, 2980 MFI for the second.

B3 was tested, and the “Efficacy [MFI at highest dose], MFI CD86, human B cells with FAP-CHO, w HSA” value was 1720 MFI.

First: B1
Second: B2
The “Efficacy [MFI at highest dose], MFI CD86, human B cells with FAP-CHO, w/o HSA” value of the first is lower: 773 MFI for the first, 6230 MFI for the second.

First: B3
Second: B4
The “Efficacy [MFI at highest dose], MFI CD86, human B cells with FAP-CHO, w/o HSA” value of the first is lower: 4950 MFI for the first, 5560 MFI for the second.

First: B1
Second: B2
The “Efficacy at highest dose, % CD86, human B cells with FAP-CHO, w/o HSA” value of the first is lower: 28.7% for the first, 78.2% for the second.

Going from B3 to B4, the “Efficacy at highest dose, % CD86, human B cells with FAP-CHO, w/o HSA” value rises from 84.4% to 87.2%.

First: B2
Second: B3
The “Efficacy at highest dose, % CD86, human B cells with FAP-CHO, w HSA” value of the first is higher: 75.6% for the first, 71.7% for the second.

biological target: T1, CD40 receptor on cells (HEK293 reporter …); experiment: cell-based or functional assay; remark: another data set of the same source

Going from B1 to B2, the “Efficacy [MFI at highest dose], MFI CD86, human B cells with WT-CHO (no FAP), w HSA” value falls from 306 MFI to 296 MFI.

In the case of B3, the “Efficacy [MFI at highest dose], MFI CD86, human B cells with WT-CHO (no FAP), w HSA” value is reported as 274 MFI.

Going from B1 to B2, the “Efficacy [MFI at highest dose], MFI CD86, human B cells with WT-CHO (no FAP), w/o HSA” value falls from 299 MFI to 290 MFI.

First: B3
Second: B4
The “Efficacy [MFI at highest dose], MFI CD86, human B cells with WT-CHO (no FAP), w/o HSA” value of the first is lower: 289 MFI for the first, 672 MFI for the second.

First: B1
Second: B2
The “Efficacy at highest dose, % CD86, human B cells with WT-CHO (no FAP), w HSA” value of the first is lower: 13.7% for the first, 43.1% for the second.

With B3 the “Efficacy at highest dose, % CD86, human B cells with WT-CHO (no FAP), w HSA” value was 42.5%.

First: B1
Second: B2
The “Efficacy at highest dose, % CD86, human B cells with WT-CHO (no FAP), w/o HSA” value of the first is lower: 12.5% for the first, 47.8% for the second.

Going from B3 to B4, the “Efficacy at highest dose, % CD86, human B cells with WT-CHO (no FAP), w/o HSA” value rises from 47.4% to 69.2%.
